Results published in patent US20230330254A1 (Regeneron, published 2023).
Where two headings read alike, the source gives them in different places.

Columns and labels:
[1] = molecular target: T1, full-length cynomolgus GLP1R on HEK293/CRE-Luc/mfGLP1R cells (cynomolgus, UniProt F8V479 24-463); test: flow cytometry, mfGLP1R cells
T1 construct: whole, on cells

[2] = molecular target: T2, full-length human gastric inhibitory polypeptide receptor on HEK293/CRE-Luc/hGIPR cells (human, UniProt P48546 22-466); test: cell-based or functional assay
T2 sequence (looked up): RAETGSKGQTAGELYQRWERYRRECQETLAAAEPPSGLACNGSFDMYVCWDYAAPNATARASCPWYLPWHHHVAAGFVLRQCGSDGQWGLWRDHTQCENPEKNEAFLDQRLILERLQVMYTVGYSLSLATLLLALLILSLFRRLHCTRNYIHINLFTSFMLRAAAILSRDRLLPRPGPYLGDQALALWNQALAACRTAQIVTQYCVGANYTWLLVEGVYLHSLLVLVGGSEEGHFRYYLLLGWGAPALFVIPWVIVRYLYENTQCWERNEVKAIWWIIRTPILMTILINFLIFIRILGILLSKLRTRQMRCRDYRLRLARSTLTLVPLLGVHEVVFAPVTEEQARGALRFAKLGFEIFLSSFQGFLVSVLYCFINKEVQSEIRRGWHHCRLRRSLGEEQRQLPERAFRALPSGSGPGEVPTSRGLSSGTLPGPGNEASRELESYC

[3] = molecular target: T3, full-length human glucagon receptor on HEK293/CRE-Luc/hGCGR cells (human, UniProt P47871 26-477); test: cell-based or functional assay
[4] = molecular target: T4, full-length human GLP1R on HEK293/CRE-Luc/hGLP1R cells (human, UniProt P43220 24-463); test: cell-based or functional assay
[5] = molecular target: T5, full-length human glucagon-like peptide 2 receptor on HEK293/CRE-Luc/hGLP2R cells (human, UniProt O95838 1-553); test: cell-based or functional assay
T5 sequence (looked up): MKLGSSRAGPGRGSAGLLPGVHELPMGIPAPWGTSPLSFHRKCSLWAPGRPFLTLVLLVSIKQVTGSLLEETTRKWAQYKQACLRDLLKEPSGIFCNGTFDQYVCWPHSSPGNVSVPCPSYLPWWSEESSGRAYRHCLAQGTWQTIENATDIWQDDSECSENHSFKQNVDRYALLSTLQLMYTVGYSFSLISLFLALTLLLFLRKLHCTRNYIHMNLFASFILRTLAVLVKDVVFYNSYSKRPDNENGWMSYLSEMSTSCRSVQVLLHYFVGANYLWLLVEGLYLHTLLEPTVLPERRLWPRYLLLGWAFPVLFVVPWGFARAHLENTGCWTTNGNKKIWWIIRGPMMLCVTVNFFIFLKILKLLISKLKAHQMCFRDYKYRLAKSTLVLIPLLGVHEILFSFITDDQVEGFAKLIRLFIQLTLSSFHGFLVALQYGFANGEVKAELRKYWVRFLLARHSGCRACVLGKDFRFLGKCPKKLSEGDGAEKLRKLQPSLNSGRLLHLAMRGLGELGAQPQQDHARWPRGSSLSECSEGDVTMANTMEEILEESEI

[6] = molecular target: T1, full-length cynomolgus GLP1R on …; test: cell-based or functional assay
[7] = molecular target: T6, full-length mouse GLP1R on HEK293/CRE-Luc/mGLP1R cells (mouse, UniProt O35659 22-463); test: flow cytometry, mGLP1R cells
T6 construct: whole, on cells
T6 sequence (looked up): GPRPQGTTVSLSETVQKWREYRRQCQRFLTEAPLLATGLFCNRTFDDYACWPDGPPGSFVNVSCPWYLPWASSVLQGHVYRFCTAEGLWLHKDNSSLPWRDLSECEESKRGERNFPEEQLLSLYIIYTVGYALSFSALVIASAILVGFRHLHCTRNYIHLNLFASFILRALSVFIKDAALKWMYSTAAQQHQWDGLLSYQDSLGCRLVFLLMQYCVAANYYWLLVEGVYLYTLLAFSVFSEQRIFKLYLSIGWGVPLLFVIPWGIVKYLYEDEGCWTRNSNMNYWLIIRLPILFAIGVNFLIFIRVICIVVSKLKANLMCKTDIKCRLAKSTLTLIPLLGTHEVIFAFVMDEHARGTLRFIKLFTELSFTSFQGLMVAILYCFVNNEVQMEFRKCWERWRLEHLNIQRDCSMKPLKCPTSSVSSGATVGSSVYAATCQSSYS

[8] = molecular target: T4, full-length human GLP1R on …; test: flow cytometry, hGLP1R cells
[9] = molecular target: T1, full-length cynomolgus GLP1R on …; test: flow cytometry, mfGLP1R cells; remark: listed apart in the source
[10] = molecular target: T4, full-length human GLP1R on …; test: flow cytometry, hGLP1R cells; remark: listed apart in the source
[11] = molecular target: T4, full-length human GLP1R on …; test: cell-based or functional assay; remark: listed apart in the source
[12] = molecular target: T4, full-length human GLP1R on …; test: cell-based or functional assay; remark: listed apart in the source
[13] = molecular target: T2, full-length human gastric inhibitory …; test: cell-based or functional assay; remark: listed apart in the source
[14] = molecular target: T3, full-length human glucagon receptor on …; test: cell-based or functional assay; remark: listed apart in the source
[15] = molecular target: T4, full-length human GLP1R on …; test: cell-based or functional assay; remark: listed apart in the source
[16] = molecular target: T5, full-length human glucagon-like peptide …; test: cell-based or functional assay; remark: listed apart in the source
[17] = molecular target: T1, full-length cynomolgus GLP1R on …; test: cell-based or functional assay; remark: listed apart in the source
[18] = molecular target: T7, N-terminal ectodomain of human GLP1R expressed with a myc-myc hexahistidine tag (human, UniProt P43220 24-145, limits assumed); test: SPR, captured via anti-hFc, 25 C
T7 construct: extracellular domain; also called hGLP1R-MMH; hGLP1R.mmh
T7 sequence (P43220 24-145 limits assumed): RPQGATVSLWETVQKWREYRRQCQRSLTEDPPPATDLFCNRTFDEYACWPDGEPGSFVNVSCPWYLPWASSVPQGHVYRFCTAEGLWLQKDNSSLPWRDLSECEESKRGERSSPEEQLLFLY

T3 sequence (P47871 26-477): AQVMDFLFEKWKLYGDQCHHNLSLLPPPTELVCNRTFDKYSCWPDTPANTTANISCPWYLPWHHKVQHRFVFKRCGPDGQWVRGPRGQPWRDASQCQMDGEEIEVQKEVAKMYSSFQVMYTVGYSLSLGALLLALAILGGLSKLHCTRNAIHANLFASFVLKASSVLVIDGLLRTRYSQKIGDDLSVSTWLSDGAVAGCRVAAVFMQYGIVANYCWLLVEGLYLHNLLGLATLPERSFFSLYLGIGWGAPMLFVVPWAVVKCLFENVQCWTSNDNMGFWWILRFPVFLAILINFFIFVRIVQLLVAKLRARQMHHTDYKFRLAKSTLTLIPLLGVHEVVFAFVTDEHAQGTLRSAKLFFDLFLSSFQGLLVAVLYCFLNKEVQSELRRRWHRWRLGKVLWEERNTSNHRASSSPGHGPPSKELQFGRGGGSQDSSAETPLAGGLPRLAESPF

Row | Binder | EC50 [1] [nM] | Flow S/N [1] [fold] | EC50 [7] [nM] | EC50 [8] [nM] | Flow S/N [8] [fold] | EC50 [9] [nM] | CRE-luc EC50 [12] [nM] | CRE-luc Relative Potency (% M2361 EC50) [12] [%] | CRE-luc Relative Signal:Noise (% M2361) [12] [%] | CRE-luc S/N [12] [fold] | CRE-luc EC50 [13] [nM] | CRE-luc EC50 [14] [nM] | CRE-luc EC50 [15] [nM] | CRE-luc EC50 [16] [nM] | CRE-luc EC50 [17] [nM] | 90 nM hGLP1R.mmh Bound (RU) [18] [RU] | Kd [18] [nM] | koff [18] [s⁻¹] | kon [18] [M⁻¹ s⁻¹] | t1/2 [18] [h] | also measured
1 | REGN7990 (antibody, human IgG4 S228P, kappa, V domains shown, IgG4; Q-tag on light chain N-terminus; also called mAb 3; REGN7990 unconjugated Ab) VH: not shown VL: DIQMTQSPSSVSASVGDRVTITCRASQGINSWLAWYQQKPGKAPKLLIYAASSLQSGVPSRFSGSGSGTDFTLTISSLQPEDFATYYCHQADSFPYTFGQGTKLEIKR | 0.988 | 205 | 61.4 | 1.89 | 256 | 7.47 |  |  |  |  |  |  |  |  |  |  |  |  |  |  | CRE-luc EC50 [2]: > 30 nM; CRE-luc EC50 [3]: > 30 nM; CRE-luc EC50 [4]: > 30 nM; CRE-luc EC50 [5]: > 30 nM; CRE-luc EC50 [6]: > 30 nM; Flow S/N [7]: 154 fold; Flow S/N [9]: 528 fold; EC50 [10]: 8.48 nM; Flow S/N [10]: 260 fold
2 | COMP Anti-GLP1R mAb1 conjugated to LP2 (antibody, human IgG4 S228P, kappa, V domains shown, azido-PEG3-amine on the Gln of the N-terminal Q-tag LLQGSG, clicked to LP2 (DIBAC-suc-PEG8-P9)) VH: QVTLKESGPGILQPSQTLSLTCSFSGFSLSTSGTGVGWIRQPSGKGLEWLSHIWWDDVKRYNPALKSRLTISRDTSYSQVFLRIASVDTADTATYYCARILDGTGPMDYWGQGTSVTVSS VL: QIVLTQSPAIMSASPGEKVTMTCSASSRVTYMHWYQQRSGTSPKRWIYDTSKLASGVPARFSGSGSGTSYSLTISSMEAEDAATYYCQQWGNNPQYTFGGGTRLEIKR |  |  |  |  |  |  |  |  |  |  |  |  |  |  |  |  |  |  |  |  | CRE-luc EC50 [11]: 0.0217 nM; CRE-luc Relative Potency (% P8 EC50) [11]: 126%; CRE-luc Relative Signal:Noise (% P8) [11]: 96.4%; CRE-luc S/N [11]: 227 fold
3 | REGN8070-M3190 (antibody, human IgG4 S228P, kappa, V domains shown, linker-payload M3190 (LP11) on Gln 3 of the N-terminal Q-tag LLQGSG, antibody-tethered drug conjugate; also called REGN8070 ATDC) VH: QVQLVESGGGVGQPGRSLRLSCAASGFTFSRNAMHWVRQAPGKGLEWVAVISYDGSNKHYADSVKGRFTISRDNSKNTLYLEMNSLRVEDTAVYYCAKGGIPFDYWGQGTLVTVSS VL: DIVMTQSPLSSPVTLGQPASISCRSSQSLVHFDGNTYLSWLHQRPGQPPRLLIYKISNRFSGVPDRFSGSGAGTDFTLKISRVEPEDVGVYYCMHATQFPYTFGQGTKLEIKR | 3.71 | 155 |  | 4.39 | 166 |  | 0.0984 | 16.5 | 112 | 71.8 | > 200 | > 200 | 0.094 | > 200 | 0.0973 | 86.7 | 0.069 | 6.06e-05 | 878000 | 3.17 | 
4 | REGN9267-M3190 (antibody, human IgG4 S228P, kappa, linker-payload M3190 (LP11) on Gln 3 of the N-terminal Q-tag LLQGSG, antibody-tethered drug conjugate; Q-tag on heavy chain; also called REGN9267 ATDC) heavy: not shown light: EIVLTQSPGTLSLSPGERDTLSCRASQSIAGRYVAWYQQKPGQAPRLLIYGASSRATGIPDRFSGSGSGTDFTLTISRLEPEDFAVYYCQQYGSSPWTFGQGTKVEIKRTVAAPSVFIFPPSDEQLKSGTASVVCLLNNFYPREAKVQWKVDNALQSGNSQESVTEQDSKDSTYSLSSTLTLSKADYEKHKVYACEVTHQGLSSPVTKSFNRGEC | 4.44 | 212 |  | 5.08 | 269 |  | 0.0854 | 19 | 107 | 68.9 | > 200 | > 200 | 0.212 | > 200 | 0.25 | 110 | 0.528 | 0.000186 | 353000 | 1.03 | 
5 | REGN9268 (antibody, human IgG4 S228P, kappa, IgG4; Q-tag LLQGSG at the N-terminus of the light chain; also called mAb 17; REGN9268 unconjugated Ab) heavy: not shown light: LLQGSGEIVLTQSPGTLSLSPGERDTLSCRASQSIAGRYVAWYQQKPGQAPRLLIYGASSRATGIPDRFSGSGSGTDFTLTISRLEPEDFAVYYCQQYGSSPWTFGQGTKVEIKRTVAAPSVFIFPPSDEQLKSGTASVVCLLNNFYPREAKVQWKVDNALQSGNSQESVTEQDSKDSTYSLSSTLTLSKADYEKHKVYACEVTHQGLSSPVTKSFNRGEC | 0.81 |  | 45 |  |  | 4.13 |  |  |  |  |  |  |  |  |  |  |  |  |  |  | EC50 [10]: 3.33 nM
6 | REGN8072-M3190 (antibody, human IgG4 S228P, kappa, V domains shown, linker-payload M3190 (LP11) on Gln 3 of the N-terminal Q-tag LLQGSG, antibody-tethered drug conjugate; also called REGN8072 ATDC; anti-GLP1R mAb4-LP11) VH: QVQLVESGGGVVQPARSLRLSCAASGFAFSRSAMHWVRQAPGKGLEWVAVISYDGSNKYYTDSVKGRFTISRDNSKNTLYLQMNTLRAEDTALYYCAKMYTTMDSFDYWGQGTLVTVSS VL: DIQLTQSPSFLSASVGDRVTITCWASQGISSYLAWYQQKPGKAPKLLIYAASTLQSGVPSRFSGSGSGTEFTLTISSLQPEDFALYYCQQLNSYPRTFGQGTKVEIKR | 3.39 | 148 |  | 3.88 | 173 |  | 0.0874 | 18.6 | 125 | 80.7 | > 200 | > 200 | 0.114 | > 200 | 0.137 | 77.3 | 0.17 | 0.000297 | 1.74e+06 | 0.65 | 
